In assay [1] the target is T1, mouse TrkC LRRIg1, C-terminal Avitag, immobilized (mouse, UniProt Q6VNS1 32-302, biotin on the Avitag (enzymatic)).
T1 chain: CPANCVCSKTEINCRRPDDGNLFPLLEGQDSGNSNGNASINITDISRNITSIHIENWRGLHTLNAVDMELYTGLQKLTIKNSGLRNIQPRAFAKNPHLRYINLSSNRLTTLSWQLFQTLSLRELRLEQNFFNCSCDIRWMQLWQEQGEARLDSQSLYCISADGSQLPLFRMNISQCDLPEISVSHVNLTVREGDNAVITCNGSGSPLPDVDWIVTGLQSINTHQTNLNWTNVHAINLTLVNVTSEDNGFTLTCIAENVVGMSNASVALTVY
The experiment in a line: SPR. Background: Surface plasmon resonance follows binding to a sensor surface in real time, without labels.

The target in assay [2] is T2, mouse NGL-3 Ecto (mouse, UniProt P0C192 39-574, biotin on the Avitag (enzymatic)).
T2 chain: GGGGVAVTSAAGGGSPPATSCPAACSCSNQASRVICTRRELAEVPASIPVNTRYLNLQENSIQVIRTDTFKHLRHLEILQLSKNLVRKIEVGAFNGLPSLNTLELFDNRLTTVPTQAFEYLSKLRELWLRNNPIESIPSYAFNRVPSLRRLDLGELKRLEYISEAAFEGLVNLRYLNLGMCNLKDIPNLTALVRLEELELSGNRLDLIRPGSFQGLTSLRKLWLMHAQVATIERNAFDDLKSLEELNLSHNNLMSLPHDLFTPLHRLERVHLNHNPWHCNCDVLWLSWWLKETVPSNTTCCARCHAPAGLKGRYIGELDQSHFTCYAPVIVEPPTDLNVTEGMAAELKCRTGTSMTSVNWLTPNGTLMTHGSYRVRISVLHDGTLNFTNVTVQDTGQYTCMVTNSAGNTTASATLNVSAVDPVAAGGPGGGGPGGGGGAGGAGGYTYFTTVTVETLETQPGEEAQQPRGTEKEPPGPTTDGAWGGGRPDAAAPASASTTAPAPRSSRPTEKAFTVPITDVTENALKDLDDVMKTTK
The experiment in a line: SPR.

The target of assay [3] is mouse TrkC LRRIg1, C-terminal Avitag, immobilized (mouse) (UniProt Q6VNS1). The assay is described as follows: SPR; equilibrium; biotinylated mouse TrkC LRRIg1 (wild type or D240A+D242A) immobilized on streptavidin-coated CM5 chips, human RPTP proteins as analytes; 10 mM HEPES pH 7.5, 150 mM NaCl, 0.01% Tween 20, 25 °C; in Fig. 6a also with increasing HS or heparin-dp10.
Assay [4] deals with T3, chicken TrkC LRRIg1cryst (crystallization protein) (chicken, UniProt Q91044 32-302, lack residues 63–77 | N163Q | N232Q | N259Q | N267Q | N294Q).
T3 construct: chicken TrkC LRRIg1, amino acids 32–302 of NCBI NM_205169.1, lacking residues 63–77; extra vector residues ETG (N-terminal) and GT (C-terminal) seen in the model; The methods name only the pHL-Avitag3 vector for this construct; also called cTrkC LRRIg1_(cryst)
T3 sequence (looked up): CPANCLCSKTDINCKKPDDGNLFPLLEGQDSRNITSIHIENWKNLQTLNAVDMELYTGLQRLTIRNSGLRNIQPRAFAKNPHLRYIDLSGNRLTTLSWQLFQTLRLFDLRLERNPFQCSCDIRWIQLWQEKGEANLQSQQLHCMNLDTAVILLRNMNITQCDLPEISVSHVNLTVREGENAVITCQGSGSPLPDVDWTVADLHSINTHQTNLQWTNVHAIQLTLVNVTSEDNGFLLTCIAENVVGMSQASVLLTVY
The assay is described as follows: crystal structure; 2.5 Å, space group P2; 10% PEG 20k, 20% PEG MME 550, 0.1 M bicine/Tris pH 8.5, 0.03 M sodium nitrate, disodium hydrogen phosphate and ammonium sulphate; 20.5 °C. To be noted: both partners purified.

For assay [5], the target named is T4, TrkC (species and construct not stated; Supplementary Figs 5a,b and 8i) ( (mouse or chicken constructs …, UniProt Q6VNS1 32-825).
T4 construct: TrkC ectodomain construct; they may differ
The experiment in a line: SPR; equilibrium; RPTPσ and TrkC truncations (Supplementary Fig. 5a,b); species and who was immobilized not given. To be noted: both partners purified.

The target in assay [6] is T5, mouse TrkC LRRIg1 (soluble) (mouse, UniProt Q6VNS1 32-302).
T5 chain: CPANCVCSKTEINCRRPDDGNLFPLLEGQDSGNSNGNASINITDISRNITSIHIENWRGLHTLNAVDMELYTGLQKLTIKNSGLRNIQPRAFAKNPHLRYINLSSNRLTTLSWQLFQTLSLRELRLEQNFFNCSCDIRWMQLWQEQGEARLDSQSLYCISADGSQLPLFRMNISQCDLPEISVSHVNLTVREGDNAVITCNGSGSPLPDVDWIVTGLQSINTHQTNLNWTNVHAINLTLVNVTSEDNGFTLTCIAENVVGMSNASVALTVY
The experiment in a line: SPR.

Assay [7] has as its target T5, mouse TrkC LRRIg1 (soluble). The experiment in a line: SEC-MALS; Superdex200 HR10/30 in 10 mM Tris, 50 mM NaCl, pH 7.5; refractive index and multi-angle light scattering detectors. Background: SEC sorts molecules by how far they enter the pores of the column.
Assay [8] has as its target T1, mouse TrkC LRRIg1, C-terminal Avitag, …. The experiment in a line: SPR.
The target of assay [9] is T6, mouse TrkC LRRIg2 (Mus musculus).
T6 chain: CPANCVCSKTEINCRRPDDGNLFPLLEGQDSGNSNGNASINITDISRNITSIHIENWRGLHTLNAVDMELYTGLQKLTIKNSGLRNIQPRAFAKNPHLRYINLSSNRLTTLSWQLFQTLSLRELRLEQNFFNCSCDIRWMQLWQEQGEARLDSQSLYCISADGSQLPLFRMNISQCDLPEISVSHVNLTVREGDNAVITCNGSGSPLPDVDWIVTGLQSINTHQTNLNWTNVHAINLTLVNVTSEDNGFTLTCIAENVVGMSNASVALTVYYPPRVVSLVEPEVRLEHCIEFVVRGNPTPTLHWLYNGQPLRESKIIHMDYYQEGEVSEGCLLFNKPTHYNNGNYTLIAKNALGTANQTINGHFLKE
The experiment in a line: SPR.

Assay [10] has as its target T5, mouse TrkC LRRIg1 (soluble). The experiment in a line: SPR.
Assay [11] shares this target. The assay is described as follows: SPR.
Assay [12] concerns the target T7, mouse TrkC LRRIg1, C-terminal Avitag, immobilized (mouse, UniProt Q6VNS1 32-302, biotin on the Avitag (enzymatic)).
T7 construct: mouse TrkC, leucine-rich repeat domain and first Ig domain, amino acids 32–302 of NCBI BC139764.1; not shown: Avitag (BirA recognition site), C-terminal, kept
The experiment in a line: SPR; equilibrium; biotinylated mouse TrkC LRRIg1 (wild type or D240A+D242A) immobilized on streptavidin-coated CM5 chips, human RPTP proteins as analytes; 10 mM HEPES pH 7.5, 150 mM NaCl, 0.01% Tween 20, 25 °C; in Fig. 6a also with increasing HS or heparin-dp10. To be noted: both partners purified.

Like-named read-outs stand apart in the source and are kept apart here.

B1: human RPTPσ Ecto (domain or fragment)
chain: EEPPRFIKEPKDQIGVSGGVASFVCQATGDPKPRVTWNKKGKKVNSQRFETIEFDESAGAVLRIQPLRTPRDENVYECVAQNSVGEITVHAKLTVLREDQLPSGFPNIDMGPQLKVVERTRTATMLCAASGNPDPEITWFKDFLPVDPSASNGRIKQLRSGALQIESSEETDQGKYECVATNSAGVRYSSPANLYVRVRRVAPRFSILPMSHEIMPGGNVNITCVAVGSPMPYVKWMQGAEDLTPEDDMPVGRNVLELTDVKDSANYTCVAMSSLGVIEAVAQITVKSLPKAPGTPMVTENTATSITITWDSGNPDPVSYYVIEYKSKSQDGPYQIKEDITTTRYSIGGLSPNSEYEIWVSAVNSIGQGPPSESVVTRTGEQAPASAPRNVQARMLSATTMIVQWEEPVEPNGLIRGYRVYYTMEPEHPVGNWQKHNVDDSLLTTVGSLLEDETYTVRVLAFTSVGDGPLSDPIQVKTQQGVPGQPMNLRAEARSETSITLSWSPPRQESIIKYELLFREGDHGREVGRTFDPTTSYVVEDLKPNTEYAFRLAARSPQGLGAFTPVVRQRTLQSISPKNFKVKMIMKTSVLLSWEFPDNYNSPTPYKIQYNGLTLDVDGRTTKKLITHLKPHTFYNFVLTNRGSSLGGLQQTVTAWTAFNLLNGKPSVAPKPDADGFIMVYLPDGQSPVPVQSYFIVMVPLRKSRGGQFLTPLGSPEDMDLEELIQDISRLQRRSLRHSRQLEVPRPYIAARFSVLPPTFHPGDQKQYGGFDNRGLEPGHRYVLFVLAVLQKSEPTFAASPFSDPFQLDNPDPQPIVDGEEG
As a reminder, the Kd is the free concentration of one partner at which half of the binding sites on the other are occupied at equilibrium, for simple one-to-one binding. A lower Kd goes with tighter binding. As for B1, the Kd in assay [1] was 1500 nM; in assay [2], over 7300 nM; in assay [3], 516 nM.

B2: chicken RPTPσ Ig1–2 (as found in the 2.5 Å complex crystals) (domain or fragment)
chain: ESPPVFIKKPVDQIGVSGGVASFVCQATGDPKPRVTWNKKGKKVNSQRFETIEFDESAGAVLRIQPLRTPRDENIYECVAQNPHGEVTVHAKLTVLREDQLPPGFPNIDMGPQLKVVERTRTATMLCAASGNPDPEITWFKDFLPVDPSTSNGRIKQLRSGGLQIESSEETDQGKYECVASNSAGVRYSSPANLYVR
notes: chicken RPTPσ; the crystallization protein was Ig1–3 (amino acids 29–316 of NM_205407.1); the cleavage site in the Ig2–Ig3 linker is not determined; also called cRPTPσ Ig1-2; source: HEK-293S GnTI− cells as Ig1–3, purified; Ig3 absent from the crystals, proteolytic cleavage the most likely reason
As usually defined, the stoichiometry N is a count of units in the complex or per binding partner. Take B2: the “stoichiometry N” value in [4] turned out to be 1.

B3: RPTPσ Ig1–2 (species not stated; Supplementary Fig. 5a) (domain or fragment)
chain: EEPPRFIKEPKDQIGVSGGVASFVCQATGDPKPRVTWNKKGKKVNSQRFETIEFDESAGAVLRIQPLRTPRDENVYECVAQNSVGEITVHAKLTVLREDQLPSGFPNIDMGPQLKVVERTRTATMLCAASGNPDPEITWFKDFLPVDPSASNGRIKQLRSGALQIESSEETDQGKYECVATNSAGVRYSSPANLYVRV
B3 gave a Kd in assay [5] of 2400 nM.

B4: human RPTPσ Ig1-FN3 (domain or fragment)
chain: EEPPRFIKEPKDQIGVSGGVASFVCQATGDPKPRVTWNKKGKKVNSQRFETIEFDESAGAVLRIQPLRTPRDENVYECVAQNSVGEITVHAKLTVLREDQLPSGFPNIDMGPQLKVVERTRTATMLCAASGNPDPEITWFKDFLPVDPSASNGRIKQLRSGALQIESSEETDQGKYECVATNSAGVRYSSPANLYVRVRRVAPRFSILPMSHEIMPGGNVNITCVAVGSPMPYVKWMQGAEDLTPEDDMPVGRNVLELTDVKDSANYTCVAMSSLGVIEAVAQITVKSLPKAPGTPMVTENTATSITITWDSGNPDPVSYYVIEYKSKSQDGPYQIKEDITTTRYSIGGLSPNSEYEIWVSAVNSIGQGPPSESVVTRTGEQAPASAPRNVQARMLSATTMIVQWEEPVEPNGLIRGYRVYYTMEPEHPVGNWQKHNVDDSLLTTVGSLLEDETYTVRVLAFTSVGDGPLSDPIQVKTQQGVPGQPMNLRAEARSETSITLSWSPPRQESIIKYELLFREGDHGREVGRTFDPTTSYVVEDLKPNTEYAFRLAARSPQGLGAFTPVVRQRTL
With B4, the Kd stood at 468 nM in assay [6], 278 nM in [8] and 202 nM in [9]. This molecule also had a stoichiometry N in assay [7] of 1.

B5: RPTPσ Ig1–3 (species not stated; Supplementary Figs 5a and 8i) (domain or fragment)
chain: EEPPRFIKEPKDQIGVSGGVASFVCQATGDPKPRVTWNKKGKKVNSQRFETIEFDESAGAVLRIQPLRTPRDENVYECVAQNSVGEITVHAKLTVLREDQLPSGFPNIDMGPQLKVVERTRTATMLCAASGNPDPEITWFKDFLPVDPSASNGRIKQLRSGALQIESSEETDQGKYECVATNSAGVRYSSPANLYVRVRRVAPRFSILPMSHEIMPGGNVNITCVAVGSPMPYVKWMQGAEDLTPEDDMPVGRNVLELTDVKDSANYTCVAMSSLGVIEAVAQITVKSLPKA
Take B5: the Kd in assay [10] amounted to 580 nM; in [11], 551 nM.

B6: human RPTPδ sEcto (domain or fragment)
chain: ETPPRFTRTPVDQTGVSGGVASFICQATGDPRPKIVWNKKGKKVSNQRFEVIEFDDGSGSVLRIQPLRTPRDEAIYECVASNNVGEISVSTRLTVLREDQIPRGFPTIDMGPQLKVVERTRTATMLCAASGNPDPEITWFKDFLPVDTSNNNGRIKQLRSESIGGTPIRGALQIEQSEESDQGKYECVATNSAGTRYSAPANLYVRELREVRRVPPRFSIPPTNHEIMPGGSVNITCVAVGSPMPYVKWMLGAEDLTPEDDMPIGRNVLELNDVRQSANYTCVAMSTLGVIEAIAQITVKALPKPPGTPVVTESTATSITLTWDSGNPEPVSYYIIQHKPKNSEELYKEIDGVATTRYSVAGLSPYSDYEFRVVAVNNIGRGPPSEPVLTQTSEQAPSSAPRDVQARMLSSTTILVQWKEPEEPNGQIQGYRVYYTMDPTQHVNNWMKHNVADSQITTIGNLVPQKTYSVKVLAFTSIGDGPLSSDIQVITQTGVPGQPLNFKAEPESETSILLSWTPPRSDTIANYELVYKDGEHGEEQRITIEPGTSYRLQGLKPNSLYYFRLAARSPQGLGASTAEISARTMQSKPSAPPQDISCTSPSSTSILVSWQPPPVEKQNGIITEYSIKYTAVDGEDDKPHEILGIPSDTTKYLLEQLEKWTEYRITVTAHTDVGPGPESLSVLIRTNEDVPSGPPRKVEVEAVNSTSVKVSWRSPVPNKQHGQIRGYQVHYVRMENGEPKGQPMLKDVMLADAQWEFDDTTEHDMIISGLQPETSYSLTVTAYTTKGDGARSKPKLVSTTGAVPGKPRLVINH
B6 had a dissociation constant (Kd) in assay [12] of over 22000 nM.

For the origin of these results see article PMC4239663, “Structural basis for extracellular cis and trans RPTPσ signal competition in synaptogenesis” (Nature Communications, 2014).
